Results published in publication PMC6709672 (Nature, 2019).
Read-outs that look alike come from different tables or passages of the source.

Legend:
[1] = molecular target: T1, mouse Smoothened (SMO) residues 64-566, crystallization construct (Mus musculus, UniProt P56726); experiment: SPR
[2] = molecular target: T1, mouse Smoothened (SMO) residues 64-566, …; experiment: SPR; remark: listed apart in the source

T1 sequence (P56726 64-566): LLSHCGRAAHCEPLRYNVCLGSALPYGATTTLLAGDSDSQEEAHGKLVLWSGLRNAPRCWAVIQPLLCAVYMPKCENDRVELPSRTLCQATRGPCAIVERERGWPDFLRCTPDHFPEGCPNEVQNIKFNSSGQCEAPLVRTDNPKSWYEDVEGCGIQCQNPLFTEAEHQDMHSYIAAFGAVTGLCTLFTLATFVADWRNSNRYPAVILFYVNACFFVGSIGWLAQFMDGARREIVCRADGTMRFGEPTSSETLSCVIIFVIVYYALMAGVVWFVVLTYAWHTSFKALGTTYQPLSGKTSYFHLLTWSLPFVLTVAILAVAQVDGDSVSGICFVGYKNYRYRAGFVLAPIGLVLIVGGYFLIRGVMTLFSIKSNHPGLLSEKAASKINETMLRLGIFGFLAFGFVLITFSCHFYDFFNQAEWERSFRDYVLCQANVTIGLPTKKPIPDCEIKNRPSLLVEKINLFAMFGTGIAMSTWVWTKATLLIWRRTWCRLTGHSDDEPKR

B1: NbSmo8 with a C-terminal hexahistidine tag (VHH)
VHH: QVQLQESGGGLVQAGGSLRLSCAASGYIFSSYAMGWYRQAPGKEREFVATIGWGTITYYADSVKGRFTISRDNAKNTVYLQMNSLKPEDTAVYYCAAQDLLYYSFPGDHAYWGQGTQVTVSS
Work on B1 yielded a Kd [1] of 168 nM and a Kd [2] of 117 nM.
